Sequences and labels used below:
B1: library; numbered along this chain (parent)
chain: MAAAGGARLLRAASAVLGGPAGRWLHHAGSRAGSSGLLRNRGPGGSAEASRSLSVSARARSSSEDKITVHFINRDGETLTTKGKVGDSLLDVVVENNLDIDGFGACEGTLACSTCHLIFEDHIYEKLDAITDEENDMLDLAYGLTDRSRLGCQICLTKSMDNMTVRVPETVADARQSIDVGKTS

The data set covers variants of B1. Put plainly: scaled log2 fold change in cell abundance, elesclomol vs control (0 = silent mean, 1 = nonsense mean) (scaled log2 ratio); higher = higher viability under elesclomol (loss of FDX1 cuproptosis function). To be noted: glucose 10 mM.
Setting [1] is: with ABC1 FDX1 KO, elesclomol 5 nM, 14 days.
Setting [2] is: with HEK293T FDX1 KO, elesclomol 40 nM, 11 days.
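Further: variant abundance is its share of total variant reads in each endpoint sample, from next-generation sequencing of the integrated ORF PCR-amplified out of genomic DNA.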

For MAAAGGARLLRAASAVLGGPAGRWLHHAGSRAGSSGLLRNRGPGGSAEASRSLSVSARARSSSEDKITVHFINRDGETLTTKGKVGDSLLDVVVENNLDIDGFGACEGTLACSTCHLIFEDHIYEKLDAITDEENDMLDLAYGLTDRSRLGCQICLTKTMDNMTVRVPETVADARQSIDVGKTS [S159T], the “scaled log2 fold change” value was -0.475 under setting [1] and 0.754 under setting [2].
For the variant MAAAGGARLLRAASAVLGGPAGRWLHHAGSRAGSSGLLRNRGPGGSAEASRSLSVSARARSSSEDKITVHFINRDGETLTTKGKVGDSLLDVVVENNLDIDGFGACEGTLACSTCHLIFEDHIYEKLDAITDEENDMLDLAYGLTDRSRLGCQICLTKQMDNMTVRVPETVADARQSIDVGKTS [S159Q], under setting [1], the “scaled log2 fold change” value was -0.52.
As to MAAAGGARLLRAASAVLGGPAGRWLHHAGSRAGSSGLLRNRGPGGSAEASRSLSVSARARSSSEDKITVHFINRDGETLTTKGKVGDSLLDVVVENNLDIDGFGACEGTLACSTCHLIFEDHIYEKLDAITDEENDMLDLAYGLTDRSRLGCQICLTKRMDNMTVRVPETVADARQSIDVGKTS [S159R], the “scaled log2 fold change” value was -0.282 under setting [1] and 0.159 under setting [2].
In the case of MAAAGGARLLRAASAVLGGPAGRWLHHAGSRAGSSGLLRNRGPGGSAEASRSLSVSARARSSSEDKITVHFINRDGETLTTKGKVGDSLLDVVVENNLDIDGFGACEGTLACSTCHLIFEDHIYEKLDAITDEENDMLDLAYGLTDRSRLGCQICLTKYMDNMTVRVPETVADARQSIDVGKTS [S159Y], the “scaled log2 fold change” value is -0.0652 under setting [1] and -0.463 under setting [2].
Regarding MAAAGGARLLRAASAVLGGPAGRWLHHAGSRAGSSGLLRNRGPGGSAEASRSLSVSARARSSSEDKITVHFINRDGETLTTKGKVGDSLLDVVVENNLDIDGFGACEGTLACSTCHLIFEDHIYEKLDAITDEENDMLDLAYGLTDRSRLGCQICLTKWMDNMTVRVPETVADARQSIDVGKTS [S159W], the “scaled log2 fold change” value reads like this: under setting [1], 0.0873; under setting [2], 0.215.
MAAAGGARLLRAASAVLGGPAGRWLHHAGSRAGSSGLLRNRGPGGSAEASRSLSVSARARSSSEDKITVHFINRDGETLTTKGKVGDSLLDVVVENNLDIDGFGACEGTLACSTCHLIFEDHIYEKLDAITDEENDMLDLAYGLTDRSRLGCQICLTKVMDNMTVRVPETVADARQSIDVGKTS [S159V]: the “scaled log2 fold change” value is, setting by setting: under setting [1], 0.225; under setting [2], 0.738.
On to MAAAGGARLLRAASAVLGGPAGRWLHHAGSRAGSSGLLRNRGPGGSAEASRSLSVSARARSSSEDKITVHFINRDGETLTTKGKVGDSLLDVVVENNLDIDGFGACEGTLACSTCHLIFEDHIYEKLDAITDEENDMLDLAYGLTDRSRLGCQICLTKSCDNMTVRVPETVADARQSIDVGKTS [M160C], for which the “scaled log2 fold change” value by setting is: under setting [1], -0.675; under setting [2], -0.515.
Turning to MAAAGGARLLRAASAVLGGPAGRWLHHAGSRAGSSGLLRNRGPGGSAEASRSLSVSARARSSSEDKITVHFINRDGETLTTKGKVGDSLLDVVVENNLDIDGFGACEGTLACSTCHLIFEDHIYEKLDAITDEENDMLDLAYGLTDRSRLGCQICLTKSKDNMTVRVPETVADARQSIDVGKTS [M160K], the “scaled log2 fold change” value runs as follows: under setting [1], -0.0408; under setting [2], 1.28.
As to MAAAGGARLLRAASAVLGGPAGRWLHHAGSRAGSSGLLRNRGPGGSAEASRSLSVSARARSSSEDKITVHFINRDGETLTTKGKVGDSLLDVVVENNLDIDGFGACEGTLACSTCHLIFEDHIYEKLDAITDEENDMLDLAYGLTDRSRLGCQICLTKSADNMTVRVPETVADARQSIDVGKTS [M160A], the “scaled log2 fold change” value runs as follows: under setting [1], 0.233; under setting [2], -0.241.
With MAAAGGARLLRAASAVLGGPAGRWLHHAGSRAGSSGLLRNRGPGGSAEASRSLSVSARARSSSEDKITVHFINRDGETLTTKGKVGDSLLDVVVENNLDIDGFGACEGTLACSTCHLIFEDHIYEKLDAITDEENDMLDLAYGLTDRSRLGCQICLTKSFDNMTVRVPETVADARQSIDVGKTS [M160F], the “scaled log2 fold change” value runs as follows: under setting [1], 0.0868; under setting [2], 0.149.
For the variant MAAAGGARLLRAASAVLGGPAGRWLHHAGSRAGSSGLLRNRGPGGSAEASRSLSVSARARSSSEDKITVHFINRDGETLTTKGKVGDSLLDVVVENNLDIDGFGACEGTLACSTCHLIFEDHIYEKLDAITDEENDMLDLAYGLTDRSRLGCQICLTKSGDNMTVRVPETVADARQSIDVGKTS [M160G], the “scaled log2 fold change” value under setting [1] worked out at 0.381 and the “scaled log2 fold change” value under setting [2] amounted to 0.247.
For MAAAGGARLLRAASAVLGGPAGRWLHHAGSRAGSSGLLRNRGPGGSAEASRSLSVSARARSSSEDKITVHFINRDGETLTTKGKVGDSLLDVVVENNLDIDGFGACEGTLACSTCHLIFEDHIYEKLDAITDEENDMLDLAYGLTDRSRLGCQICLTKSLDNMTVRVPETVADARQSIDVGKTS [M160L], the “scaled log2 fold change” value under setting [1] was -0.304.
Take MAAAGGARLLRAASAVLGGPAGRWLHHAGSRAGSSGLLRNRGPGGSAEASRSLSVSARARSSSEDKITVHFINRDGETLTTKGKVGDSLLDVVVENNLDIDGFGACEGTLACSTCHLIFEDHIYEKLDAITDEENDMLDLAYGLTDRSRLGCQICLTKSHDNMTVRVPETVADARQSIDVGKTS [M160H]: the “scaled log2 fold change” value under setting [1] is -0.251 and the “scaled log2 fold change” value under setting [2] was determined as 0.0298.
In the case of MAAAGGARLLRAASAVLGGPAGRWLHHAGSRAGSSGLLRNRGPGGSAEASRSLSVSARARSSSEDKITVHFINRDGETLTTKGKVGDSLLDVVVENNLDIDGFGACEGTLACSTCHLIFEDHIYEKLDAITDEENDMLDLAYGLTDRSRLGCQICLTKSDDNMTVRVPETVADARQSIDVGKTS [M160D], the “scaled log2 fold change” value by setting is: under setting [1], -0.132; under setting [2], 0.103.
With MAAAGGARLLRAASAVLGGPAGRWLHHAGSRAGSSGLLRNRGPGGSAEASRSLSVSARARSSSEDKITVHFINRDGETLTTKGKVGDSLLDVVVENNLDIDGFGACEGTLACSTCHLIFEDHIYEKLDAITDEENDMLDLAYGLTDRSRLGCQICLTKSNDNMTVRVPETVADARQSIDVGKTS [M160N], the “scaled log2 fold change” value is 0.245 under setting [1] and -0.0466 under setting [2].
On to MAAAGGARLLRAASAVLGGPAGRWLHHAGSRAGSSGLLRNRGPGGSAEASRSLSVSARARSSSEDKITVHFINRDGETLTTKGKVGDSLLDVVVENNLDIDGFGACEGTLACSTCHLIFEDHIYEKLDAITDEENDMLDLAYGLTDRSRLGCQICLTKSIDNMTVRVPETVADARQSIDVGKTS [M160I], for which the “scaled log2 fold change” value under setting [1] was found to be 0.353 and the “scaled log2 fold change” value under setting [2] stood at 0.63.
For MAAAGGARLLRAASAVLGGPAGRWLHHAGSRAGSSGLLRNRGPGGSAEASRSLSVSARARSSSEDKITVHFINRDGETLTTKGKVGDSLLDVVVENNLDIDGFGACEGTLACSTCHLIFEDHIYEKLDAITDEENDMLDLAYGLTDRSRLGCQICLTKSEDNMTVRVPETVADARQSIDVGKTS [M160E], the “scaled log2 fold change” value runs as follows: under setting [1], 0.143; under setting [2], -0.299.

The record behind these values is the supplement of paper PMC12855868.
